One test addresses GLP-1 receptor. Briefly: cell-based or functional assay.
The target in test [1] is human GLP-2 receptor (human) (UniProt O95838). Description: cell-based or functional assay.
Chain of human GLP-2 receptor (human) (O95838 whole entry): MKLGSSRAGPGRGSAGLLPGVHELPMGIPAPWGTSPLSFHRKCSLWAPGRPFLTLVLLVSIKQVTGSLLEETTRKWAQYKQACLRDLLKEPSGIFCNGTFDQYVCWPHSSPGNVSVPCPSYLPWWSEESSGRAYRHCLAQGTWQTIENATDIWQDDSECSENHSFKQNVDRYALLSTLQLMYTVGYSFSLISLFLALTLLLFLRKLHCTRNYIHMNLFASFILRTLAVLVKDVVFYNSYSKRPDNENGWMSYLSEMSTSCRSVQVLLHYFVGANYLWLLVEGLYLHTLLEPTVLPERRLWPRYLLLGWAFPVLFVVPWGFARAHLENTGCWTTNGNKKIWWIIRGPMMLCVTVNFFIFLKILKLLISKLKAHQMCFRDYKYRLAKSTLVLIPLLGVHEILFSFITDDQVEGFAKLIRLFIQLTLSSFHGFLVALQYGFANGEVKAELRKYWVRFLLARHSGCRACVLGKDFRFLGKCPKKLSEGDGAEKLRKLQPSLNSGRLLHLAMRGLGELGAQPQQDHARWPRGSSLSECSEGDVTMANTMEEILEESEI

In the test with GLP-1 receptor, “native GLP-1 peptide (from UniProt P01275 98-127)” showed an EC50 (pM), cAMP luciferase reporter in GLP1R cAMP/luc cells of 26 pM and a vs. GLP-1 relative activity (%) of 100%.
As to “native GLP-2 peptide (from UniProt P01275 146-178)”, in test [1], the EC50 (nM), cAMP-gated CNG channel membrane potential dye fluorescence (Ft/F0) in Human GLP2R ACTOne cells was found to be 0.58 nM and the vs. GLP-2 relative activity (%) amounted to 100%.

The values are drawn from patent US20240368239A1, “Novel bispecific protein and use thereof” (SL METAGEN, priority 2020, published 2024).
